# Measurements taken from patent US20140058068A1 (UNIVERSITY OF MIAMI, published 2014).
# Square brackets hold non-standard residues; d marks the D form. Ends that are not written are not given here. * marks the point of attachment. Desaminotyrosyl = O=C(CCc1ccc(O)cc1)*; NMeY = CN[C@@H](Cc1ccc(O)cc1)C(=O)O; hArg = N=C(N)NCCCC[C@H](N)C(=O)O; Nle = CCCC[C@H](N)C(=O)O; Orn = NCCC[C@H](N)C(=O)O; dAbu = CC[C@@H](N)C(=O)O; Abu = CC[C@H](N)C(=O)O; GABA = NCCCC(=O)O
# T1: GHRH receptor of human pituitary membrane homogenates (human, UniProt Q02643 23-423)
# T1 construct: whole, on cells; Native receptor in pituitary membrane homogenates, not intact cells; also called hGH-RH receptor
# T1 sequence (looked up): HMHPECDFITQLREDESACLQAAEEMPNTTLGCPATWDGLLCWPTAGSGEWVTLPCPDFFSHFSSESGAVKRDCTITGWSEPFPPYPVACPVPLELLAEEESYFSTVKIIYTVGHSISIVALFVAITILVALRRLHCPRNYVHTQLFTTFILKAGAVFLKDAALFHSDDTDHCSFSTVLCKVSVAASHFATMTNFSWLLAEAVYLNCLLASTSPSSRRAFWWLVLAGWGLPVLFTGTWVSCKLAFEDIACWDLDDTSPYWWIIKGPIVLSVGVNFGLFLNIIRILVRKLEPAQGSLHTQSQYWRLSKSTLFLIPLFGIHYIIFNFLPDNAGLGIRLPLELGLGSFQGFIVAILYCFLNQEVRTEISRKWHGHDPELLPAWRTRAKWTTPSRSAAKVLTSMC
# B1: [Dat^1, D-Ala^2, Orn^12, Abu^15, Orn^21, Nle^27, Asp^28, Har^30]hGH-RH(1-30)NH2 (peptide)
# chain: [Desaminotyrosyl][dA]DAIFTNSYR[Orn]VL[Abu]QLSAR[Orn]LLQDI[Nle]DR[hArg]-NH2
# SMILES: CCCC[C@H](NC(=O)[C@@H](NC(=O)[C@H](CC(=O)O)NC(=O)[C@H](CCC(N)=O)NC(=O)[C@H](CC(C)C)NC(=O)[C@H](CC(C)C)NC(=O)[C@H](CCCN)NC(=O)[C@H](CCCNC(=N)N)NC(=O)[C@H](C)NC(=O)[C@H](CO)NC(=O)[C@H](CC(C)C)NC(=O)[C@H](CCC(N)=O)NC(=O)[C@H](CC)NC(=O)[C@H](CC(C)C)NC(=O)[C@@H](NC(=O)[C@H](CCCN)NC(=O)[C@H](CCCNC(=N)N)NC(=O)[C@H](Cc1ccc(O)cc1)NC(=O)[C@H](CO)NC(=O)[C@H](CC(N)=O)NC(=O)[C@@H](NC(=O)[C@H](Cc1ccccc1)NC(=O)[C@@H](NC(=O)[C@H](C)NC(=O)[C@H](CC(=O)O)NC(=O)[C@@H](C)NC(=O)CCc1ccc(O)cc1)[C@@H](C)CC)[C@@H](C)O)C(C)C)[C@@H](C)CC)C(=O)N[C@@H](CC(=O)O)C(=O)N[C@@H](CCCNC(=N)N)C(=O)N[C@@H](CCCCNC(=N)N)C(N)=O
# B2: [Dat^1, D-Abu^2, Orn^12, Abu^15, Orn^21, Nle^27, Gab^30]hGH-RH(1-30)NH2 (peptide)
# chain: [Desaminotyrosyl][dAbu]DAIFTNSYR[Orn]VL[Abu]QLSAR[Orn]LLQDI[Nle]SR[GABA]-NH2
# SMILES: CCCC[C@H](NC(=O)[C@@H](NC(=O)[C@H](CC(=O)O)NC(=O)[C@H](CCC(N)=O)NC(=O)[C@H](CC(C)C)NC(=O)[C@H](CC(C)C)NC(=O)[C@H](CCCN)NC(=O)[C@H](CCCNC(=N)N)NC(=O)[C@H](C)NC(=O)[C@H](CO)NC(=O)[C@H](CC(C)C)NC(=O)[C@H](CCC(N)=O)NC(=O)[C@H](CC)NC(=O)[C@H](CC(C)C)NC(=O)[C@@H](NC(=O)[C@H](CCCN)NC(=O)[C@H](CCCNC(=N)N)NC(=O)[C@H](Cc1ccc(O)cc1)NC(=O)[C@H](CO)NC(=O)[C@H](CC(N)=O)NC(=O)[C@@H](NC(=O)[C@H](Cc1ccccc1)NC(=O)[C@@H](NC(=O)[C@H](C)NC(=O)[C@H](CC(=O)O)NC(=O)[C@@H](CC)NC(=O)CCc1ccc(O)cc1)[C@@H](C)CC)[C@@H](C)O)C(C)C)[C@@H](C)CC)C(=O)N[C@@H](CO)C(=O)N[C@@H](CCCNC(=N)N)C(=O)NCCCC(N)=O
# B3: [N-Me-Tyr^1, Abu^2, Orn^12, Abu^15, Orn^21, Nle^27, Gab^30]hGH-RH(1-30)NH2 (peptide)
# peptide: [NMeY][Abu]DAIFTNSYR[Orn]VL[Abu]QLSAR[Orn]LLQDI[Nle]SR[GABA]-NH2
# modifications: N-terminus assumed
# SMILES: CCCC[C@H](NC(=O)[C@@H](NC(=O)[C@H](CC(=O)O)NC(=O)[C@H](CCC(N)=O)NC(=O)[C@H](CC(C)C)NC(=O)[C@H](CC(C)C)NC(=O)[C@H](CCCN)NC(=O)[C@H](CCCNC(=N)N)NC(=O)[C@H](C)NC(=O)[C@H](CO)NC(=O)[C@H](CC(C)C)NC(=O)[C@H](CCC(N)=O)NC(=O)[C@H](CC)NC(=O)[C@H](CC(C)C)NC(=O)[C@@H](NC(=O)[C@H](CCCN)NC(=O)[C@H](CCCNC(=N)N)NC(=O)[C@H](Cc1ccc(O)cc1)NC(=O)[C@H](CO)NC(=O)[C@H](CC(N)=O)NC(=O)[C@@H](NC(=O)[C@H](Cc1ccccc1)NC(=O)[C@@H](NC(=O)[C@H](C)NC(=O)[C@H](CC(=O)O)NC(=O)[C@H](CC)NC(=O)[C@H](Cc1ccc(O)cc1)NC)[C@@H](C)CC)[C@@H](C)O)C(C)C)[C@@H](C)CC)C(=O)N[C@@H](CO)C(=O)N[C@@H](CCCNC(=N)N)C(=O)NCCCC(N)=O
# notes: also called Peptide 25503
# Molecular target: T1, GHRH receptor of human pituitary …
# Experiment: radioligand competition, [His1,125I-Tyr10,Nle27]hGHRH(1-32)NH2 (0.2 nM) as competitor, human pituitary membrane homogenates
# Text: Normal human pituitaries were purchased from the National Hormone and Peptide Program (A. F. Parlow, Los Angeles, County Harbor—UCLA Medical Center, Torrance, Calif.).
Molecule,IC50 [nM],Relative affinity (Binding potency) vs GHRH,Relative affinity (Binding potency) vs JI-38
B1,0.14,"42.3 fold, GHRH(1-29) = 1","13.9 fold, JI-38 = 1"

# Molecular target: GHRH receptor of human pituitary membrane homogenates (human) (UniProt Q02643)
# Experiment: radioligand competition, 125I-JV-1-42 (~0.2 nM) as competitor, human pituitary membrane homogenates
Molecule,IC50 [nM],"Relative affinity (Binding potency) vs JI-38 (fold, JI-38 = 1)"
"[N-Me-Tyr^1, D-Ala^2, Gln^8, Orn^12, Abu^15, Orn^21, Nle^27, Asp^28, Agm^29]hGH-RH(1-29) (from UniProt P01286 32-60) (peptide)",0.82,5.3
"[N-Me-Tyr^1, D-Ala^2, Orn^12, Abu^15, Orn^21, Nle^27, Asp^28]hGH-RH(1-29)NH-CH3 (from UniProt P01286 32-60) (peptide)",1.06,4.1
"[N-Me-Tyr^1, D-Ala^2, Orn^12, Abu^15, Orn^21, Nle^27, Asp^28]hGH-RH(1-29)NH-CH2-CH3 (from UniProt P01286 32-60) (peptide)",1.47,2.96
"[Dat^1, D-Ala^2, Gln^8, Orn^12, Abu^15, Orn^21, Nle^27, Asp^28]hGH-RH(1-29)NH-CH3 (from UniProt P01286 32-60) (peptide)",0.55,7.91
"[N-Me-Tyr^1, D-Ala^2, Gln^8, Orn^12, Abu^15, Orn^21, Nle^27, Asp^28]hGH-RH(1-29)NH-CH3 (from UniProt P01286 32-60) (peptide)",0.16,27.2
"[N-Me-Tyr^1, D-Ala^2, Fpa5^6, Orn^12, Abu^15, Orn^21, Nle^27, Asp^28, Agm^29]hGH-RH(1-29) (from UniProt P01286 32-60) (peptide)",3.05,1.43
"[N-Me-Tyr^1, D-Ala^2, Orn^12, Abu^15, Orn^21, Nle^27, Asp^28, Agm^29]hGH-RH(1-29) (from UniProt P01286 32-60) (peptide)",1.7,2.56
"[Dat^1, D-Ala^2, Gln^8, Orn^12, Abu^15, Orn^21, Nle^27, Asp^28, D-Arg^29]hGH-RH(1-29)NH-CH3 (from UniProt P01286 32-60) (peptide)",2.74,1.59
"[N-Me-Tyr^1, D-Ala^2, Gln^8, Orn^12, Abu^15, Orn^21, Nle^27, Asp^28, Apa^30]hGH-RH(1-30)NH2 (from UniProt P01286 32-61) (peptide)",0.71,6.12
"[N-Me-Tyr^1, D-Ala^2, Orn^12, Abu^15, Orn^21, Nle^27, Gab^30]hGH-RH(1-30)NH2 (from UniProt P01286 32-61) (peptide)",1.07,4.07
"[N-Me-Tyr^1, D-Ala^2, Fpa5^6, Orn^12, Abu^15, Orn^21, Nle^27, Asp^28]hGH-RH(1-29)NH-CH3 (from UniProt P01286 32-60) (peptide)",0.87,5
"[N-Me-Tyr^1, D-Ala^2, Fpa5^6, Orn^12, Abu^15, Orn^21, Nle^27, Gab^30]hGH-RH(1-30)NH-CH3 (from UniProt P01286 32-61) (peptide)",1.56,2.79
"[Ac-N-Me-Tyr^1, D-Ala^2, Gln^8, Orn^12, Abu^15, Orn^21, Nle^27, Asp^28, Agm^29]hGH-RH(1-29) (from UniProt P01286 32-60) (peptide)",3.44,1.26

# Molecular target: T1, GHRH receptor of human pituitary …
# Experiment: as above
# Text: Normal human pituitaries were purchased from the National Hormone and Peptide Program (A. F. Parlow, Los Angeles, County Harbor-UCLA Medical Center, Torrance, Calif.).
Molecule,IC50 [nM],Relative affinity (Binding potency) vs JI-38
B2,1.44,"3.02 fold, JI-38 = 1"
B3,1.18,"3.67 fold, JI-38 = 1"
